From patent US20090203886A1 (OSAKA UNIVERSITY, published 2009)
Where a chain is given by its changes, count along the chain named. Values joined by “and” are separate entries in the source; they are usually repeats but may differ in a detail not shown here. Equal values may be shown once.

B1: chimerized 1K1791 antibody (c1791) (antibody, V domains shown)
VH: QIQLVQSGPELKKPGETVKISCKASGYTFTNFGVNWVKQAPGKGLKWMGWINTYTGEPSYADDFKGRFAFSLEASANTAYLQINNLKNDDMSTYFCTRRTNYYGTSYYYAMDYWGQGTSVTVSS
VL: STVMTQTPKFLLVSAGDRVTITCKASQSVSNDVAWYQQKPGQSPKVLIYFASNRYTGVPDRFTGSGYGTDFTFTINTVQAEDLAVYFCQQDYSSPLTFGAGTKLELK
B2: humanized 1K1791 antibody fv (FraL x VenH) (antibody, V domains shown)
VH: QIQLVQSGPELKKPGASVKISCKASGYTFTNFGVNWVKQAPGKGLKWMGWINTYTGEPSYADDFKGRFAFSLDASVSTAYLQISSLKAEDTSTYFCTRRTNYYGTSYYYAMDYWGQGTTVTVSS
VL: STVMTQSPSFLSASVGDRVTITCKASQSVSNDVAWYQQKPGQSPKVLIYFASNRYTGVPDRFSGSGYGTDFTLTISSLQAEDVAVYFCQQDYSSPLTFGAGTKLEIK
notes: Kappa, gamma 1 construct; also called hz1791 fv; Fv010
B3: humanized 1K1791 antibody ff (FraL x FraH) (antibody, V domains shown)
VH: B2 VH with P9S, I20V, V76A, T91M, S92A
VL: B2 VL
notes: Kappa, gamma 1 construct; also called hz1791 ff; Ff019
B4: humanized 1K1791 antibody sf (SdrL x FraH) (antibody, V domains shown)
VH: B2 VH with P9S, I20V, V76A, T91M, S92A
VL: STVMTQSPDSLAVSLGERATINCKSSQSNSNDVAWYQQKPGQSPKVLIYFASNRYSGVPDRFSGSGYGTDFTLTISSLQAEDVAVYFCQQDYSSPLTFGAGTKLEIK
notes: Kappa, gamma 1 construct; also called hz1791 sf; Sf043
B5: humanized 1K1791 antibody ss (SdrL x SdrH) (antibody, V domains shown)
VH: B2 VH with P9S, I20V, K38R, D62Q, D63G, K65T, S92A
VL: B4 VL
notes: Kappa, gamma 1 construct; also called hz1791 ss; Ss020
B6: 1K1422 murine anti CD20 monoclonal antibody (antibody, V domains shown)
VH: QVQLQQPGAELVKPGASVKMSCRASGYTFTNYNMHWIKQTPGQGLEWIGAIYPGSGDTSYNRKFKGKATLTADTSSSTAYMQFSSLTSADSAVYYCARFTYYYGGTYGAMDYWGQGTSVTVSL
VL: QIVLTQSPPIMSASLGEEITLTCSASSRVSYMLWYQQKSGTSPKLLIYSTSNLASGVPSRFSGSGSGTFYSLTISSVEAEDAADYYCHQWTSNPCTFGGGTKLEIK
notes: also called m1422
B7: 1K1228 murine anti CD20 monoclonal antibody (antibody, mouse IgG1, V domains shown)
VH: QVQLQQPGAELVKPGASVKVSCKASGFTFTSYNLHWVKQTPGQGLVWIGAIYPGNGDTSYNQKFRGKATLTADISSSTAYMQLSSLTSEDSAVYYCARYYYGYDAMDYWGQGTSVTVSS
VL: EIILTQSPTTMAASPGEKITITCSASSSISSYYLRWYQQKPGFSPKVLIYRTSNLASGVPARFSGSGSGTSYSLTIGTMEAEDVATYYCQQGNTVPLTFGSGTKLEIK
notes: also called m1228
B8: 1K0924 murine anti CD20 monoclonal antibody (antibody, mouse IgG2b, V domains shown)
VH: QVQLQQPGAELVKPGASVKMSCKASGYTFTSYNIHWVKQTPGQGLEWIGAIYPGNGDTSYNQKFKGKATLTSDKSSSTAYMQLSSLTSEDSAVYYCARMSTMITGFDYWGQGTTLTVSS
VL: QIVLSQSPAILSASPGEKVTMTCRASSSVSYMHWYQQRPGSSPKPWIYATSNLASGVPARFSGSGSGTSYYFTISRVEAEDAATYYCQQWNSNPPTHGGGTKLEIK
notes: also called m0924
B9: humanized 1K1791 antibody as (AbbL x SdrH) (antibody, V domains shown)
VH: B2 VH with P9S, I20V, K38R, D62Q, D63G, K65T, S92A
VL: B4 VL with N29V
notes: Kappa, gamma 1 construct; also called hz1791 as; As001
B10: humanized 1K1791 antibody vv (VenL x VenH) (antibody, V domains shown)
VH: B2 VH
VL: B4 VL with A19V, S25A, N29V, S56T, L73F, L78V, I106L
notes: Kappa, gamma 1 construct; also called hz1791 vv; Vv018

Target: T1, human CD20 antigen (human, UniProt P11836 1-297)
T1 sequence (looked up): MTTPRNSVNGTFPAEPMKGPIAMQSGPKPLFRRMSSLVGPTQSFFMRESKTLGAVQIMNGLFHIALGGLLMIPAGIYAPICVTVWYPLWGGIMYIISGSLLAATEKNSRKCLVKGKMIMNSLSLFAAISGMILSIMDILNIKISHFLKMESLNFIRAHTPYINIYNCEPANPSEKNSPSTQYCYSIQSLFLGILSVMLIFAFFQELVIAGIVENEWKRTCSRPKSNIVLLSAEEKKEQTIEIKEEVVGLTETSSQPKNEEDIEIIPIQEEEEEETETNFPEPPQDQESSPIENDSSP
Assay: cell-based or functional assay

Row | Binder | CDC (10 ug/ml), RAJI | CDC (10 ug/ml), RC-K8 | CDC (10 ug/ml), SUDHL4 | CDC (10 ug/ml), WIL2NS
1 | B1 | 99 relative, c2B8 = 100 | 100 relative, c2B8 = 100 | 119 relative, c2B8 = 100 | 529 relative, c2B8 = 100
2 | B2 | 99 relative, c2B8 = 100 | 498 relative, c2B8 = 100 | 120 relative, c2B8 = 100 | 172 relative, c2B8 = 100
3 | B3 | 98 relative, c2B8 = 100 | 530 relative, c2B8 = 100 | 121 relative, c2B8 = 100 | 203 relative, c2B8 = 100
4 | B4 | 78 relative, c2B8 = 100 | 713 relative, c2B8 = 100 | 111 relative, c2B8 = 100 | 295 relative, c2B8 = 100
5 | B5 | 73 relative, c2B8 = 100 | 108 relative, c2B8 = 100 | 61 relative, c2B8 = 100 | 120 relative, c2B8 = 100

Target: T1, human CD20 antigen
Assay: cell-based or functional assay
Remark: another data set of the same source

Row | Binder | Capacity to Induce Apoptosis (Raji cells)
6 | B6 | 130
7 | B7 | 30
8 | B8 | 60

Target: T1, human CD20 antigen
Assay: Scatchard analysis on Raji cells, FITC anti human Fc secondary (Example 3)
Procedure: (§1) The reaction solution was 1% BSA-PBS solution with a cell number of 5×10⁶ cells and was injected into a 1.5 ml tube to a final volume of 100 μl. Three samples for each test antibody were prepared and four tubes to which antibody was not added were prepared as samples for background calculations.
(§2) After the detecting step, an image was digitized using image analysis software Image Quant (Amersham Bioscience) and analyzed using Excel (Microsoft). Average values for the same test antibodies were calculated and the values for background calculation samples (when only reacting a cell with a FITC-labeled secondary antibody) were subtracted from the test antibody values. The background values derived for the FITC-labeled secondary antibody binding non-specifically to cells, the PBS solution and the plate are omitted. At the same time, a standard curve was prepared by measuring the amount of fluorescence of only FITC-labeled secondary antibodies at amounts of 0, 12.5, 25, 50, 75, 100, 125, and 150 ng per 100 μl. In this manner, the number of moles of secondary antibody binding to cells was calculated. Assuming that each primary antibody and the FITC-labeled secondary antibody react at a ratio of […], the amount of cell-bound primary antibody was calculated. Primary antibody in suspension was calculated by subtracting the bound amount from the added amount. Scatchard analysis was performed using these values in order to calculate a dissociation constant Kd.

Row | Binder | Kd
9 | B2 | 7.17 nM and 7.25 nM
10 | B9 | 11.9 nM and 11.5 nM
11 | B3 | 8.5 nM and 7.81 nM
12 | B10 | 7.14 nM and 7.01 nM
13 | B4 | 11.6 nM and 13.8 nM
14 | B5 | 24.4 nM and 21.8 nM

Target: T1, human CD20 antigen
Assay: Scatchard analysis on Raji cells (Example 3), average over the clones of the construct
Procedure: as §1, §2

Row | Binder | Kd [nM]
15 | B2 | 7.21
16 | B9 | 11.7
17 | B3 | 8.15
18 | B10 | 7.07
19 | B4 | 12.7
20 | B5 | 23.1

Target: T1, human CD20 antigen
Assay: cell-based or functional assay
Remark: another data set of the same source

Row | Binder | Cell growth inhibiting test on Raji cells, Absorption (492 nm) [absorbance 492 nm]
21 | B6 | 1.77

Target: T1, human CD20 antigen
Assay: Scatchard analysis on Raji cells, FITC secondary antibody fluorescence (Example 2)
Procedure: The mixture was shaken for one hour at room temperature while shielding against light and primary antibodies binding to cells were detected. After the reaction, the mixture was centrifuged at 3,000 rpm for three minutes and the cells were recovered. The cells were suspended in 200 μl of PBS to remove unreacted FITC-labeled anti murine IgG (H&L) antibody remaining on the cell surface and then centrifuged at 3,000 rpm for three minutes to remove the supernatant. This operation was repeated twice.
After the detection step, the image was digitized using image analysis software Image Quant (Amersham Bioscience) and analyzed using Excel (Microsoft). Background values for the plate, the PBS solution and FITC-labeled secondary antibody displaying non-specific binding to cells were determined. Then a value for the reaction only between the cells and the FITC-labeled secondary antibodies was obtained. Average values for those four points were subtracted from the fluorescent intensity value for each sample in order to obtain the amount of fluorescence of cell-conjugated FITC-labeled secondary antibody. A standard curve was prepared by measuring the amount of fluorescence at various concentrations of control cell-conjugated FITC-labeled secondary antibodies. Thus the amount of cell-conjugated secondary antibody (number of moles or weight) was calculated. The amount of cell-conjugated primary antibody was calculated assuming that each primary antibody and the FITC-labeled secondary antibody react at a ratio of 1:2. Primary antibody in suspension was calculated by subtracting the cell-conjugated amount from the added amount. When calculating the antibody concentration as a molar concentration, the molecular weight of the monoclonal was taken to be 150,000.
Scatchard analysis was used to calculate the antigen number and dissociation constant (Kd value) refer to Scatchard, G.; Ann. N.Y. Acad.

Row | Binder | Kd [nM]
22 | B6 | 3.39
23 | B7 | 0.26
24 | B8 | 1.35

Target: T1, human CD20 antigen
Assay: cell-based or functional assay
Remark: another data set of the same source

Row | Binder | Apoptosis (5 ug/ml), DHL4 | Apoptosis (5 ug/ml), RAJI | Apoptosis (5 ug/ml), RCK8 | Apoptosis (5 ug/ml), Wil2-NS
25 | B2 | 65 relative, m2B8 = 100 | 88 relative, m2B8 = 100 | 50 relative, m2B8 = 100 | 49 relative, m2B8 = 100
26 | B3 | 96 relative, m2B8 = 100 | 84 relative, m2B8 = 100 | 47 relative, m2B8 = 100 | 49 relative, m2B8 = 100
27 | B4 | 143 relative, m2B8 = 100 | 205 relative, m2B8 = 100 | 93 relative, m2B8 = 100 | 100 relative, m2B8 = 100
28 | B5 | 133 relative, m2B8 = 100 | 202 relative, m2B8 = 100 | 92 relative, m2B8 = 100 | 108 relative, m2B8 = 100
